Test results: patent publication US8440804B2, “Polypeptides having modulatory effects on cells” (Ecole Normale Superieure de Lyon, priority 2006, dated 2013)
Residue numbers refer to the chain shown, from its start.

Assays:
[1] = test system: purified CNA (calcineurin); test: In vitro calcineurin phosphatase assay (pNPP substrate); format: biochemical
Description: (A) In vitro calcineurin phosphatase assay. Dephosphorylation of the model substrate pNPP by purified calcineurin was measured in presence of various amounts of purified calmodulin (CaM), GST-R5G42 or GST-R7G44 fusion proteins.
The inventors next explored the ability of R5G42 to modulate the enzymatic activity of its target protein. To this end, they first performed an in vitro phosphatase assay using purified CNA and para-nitrophenylphosphate (pNPP) as a substrate.
GST-aptamer fusion proteins were first produced as described above. For this experiment, GST-aptamer fusion proteins were eluted from glutathion sepharose beads using 20 mM reduced L-glutathione (Sigma), and the eluates were dialyzed overnight against a phosphatase buffer (50 mM Tris-HCl pH7.4, 0.1 mM CaCl2). The phosphatase activity of calcineurin was measured using pNPP (Sigma) as substrate, in a final volume of 100 μl. The sample solution contained 50 mM Tris-HCl (pH7.4), 0.1 mM CaCl2, 1 mM NiSO4, 0.15 mg/ml BSA (Sigma), 0.1 μM calcineurin (Upstate). Purified calmodulin (Upstate) and GST-aptamer fusion proteins were added at different concentrations (see figure legend). After a 15 min pre-incubation at 37° C., the reactions were started by adding 4.1 mM pNPP and the mixtures were incubated at 37° C. for 20 min. The nitrophenylate product was measured at 405 nm using an Envision plate reader (Perkin Elmer). The background level that was determined was subtracted using a mixture lacking calcineurin.

Hela cells = test: Colony formation assay (cell proliferation assay, crystal violet); format: cell-based; settings: continuous expression 2 weeks, compared to AptaLib and human thioredoxin
Description: (§1) (B) Colony formation assays. Hela or MCF-7 cells were transfected with plasmids directing the stable expression of the Cdk inhibitor p21, a library of peptide aptamers from pBK1 (AptaLib), Human thioredoxin (HTRX), and peptide aptamers R7G44, R5G42, R5G52. The cells were cultured for two weeks and the colonies were stained with crystal violet.
(§2) The inventors wished to establish the antiproliferative activity of these peptide aptamers using alternative cellular models and a non-retroviral vector to express individually each aptamer. They cloned the aptamer coding genes into a vector bearing a hygromycin selection marker. They also subcloned the pBK1 library into this vector, to create “AptaLib”. They continuously expressed the aptamers, the empty thioredoxin scaffold or AptaLib in Hela and MCF-7 cells for 2 weeks and they stained the cells that grew. […] These aptamers may originate from the remaining background of slowly proliferating cells during the seventh screening iteration, independently of the expressed aptamers. […] This could be due to the fact that the CMTMR assay is more sensitive in detecting modest antiproliferative effects than the colony formation assay or that some peptide aptamers somehow enhance the CMTMR labeling of their host cells.
(§3) To stably express peptide aptamers in mammalian cells, the episomal eukaryotic expression vector pCEP4 that bears a CMV promoter and a hygromycin selection marker (InVitrogen) was used. Aptamer coding sequences were PCR amplified using the oligonucleotides
(§4) that contained a stop codon. The PCR products were digested with NheI and NotI and ligated into NheI/NotI-cut pCEP4 to create pEA-aptamer plasmids. 3×10^5 cells/well were plated in 6-well plates and transfected 24 h after using Jet PEI (Qbiogen), 3.7 μg pEA-aptamer plasmids and 0.3 μg pEGFP-C1 (Clontech) to monitor transfection. Hygromycin (InVitrogen) was added at 200 μg/ml two days later and the cells were cultured for 2 weeks, renewing the medium twice a week. The cells were then rinsed in PBS and were fixed and stained by incubating 30 min in crystal violet (0.05% crystal violet, 20% ethanol, 0.37% formaldehyde). Excess crystal violet was removed by washing with water. In Vitro Phosphatase Assay

MCF-7 cells = test: as above; format: cell-based; settings: MCF-7, continuous expression 2 weeks, compared to AptaLib and human thioredoxin
Description: as §1, §2, §3, §4

peptide aptamer RG22 = test: Yeast two-hybrid mating assay, positive control of interaction; format: binding; settings: RG22 interacts with LexA in most LexA fusion proteins
Description: (§5) (A) Yeast two-hybrid mating assay. TB50α yeast were co-transformed with pSH18-34T (bearing a lacZ reporter gene) and plasmids directing the expression of LexA alone or in fusion with peptide aptamers R5G42, R7G44 or R5G52. MB210a yeast were transformed with the selected cDNA library plasmids directing the expression of CNAβ, CNAγ, and NS5ATP2 truncated proteins. To obtain negative controls, MB210a yeast were also transformed with the empty prey plasmid (pJG4-5) and with pJG4-5 directing the expression of Ras and FKBP12 prey proteins. To obtain a positive control, MB210a yeast were transformed with pJG4-5 directing the expression of RG22 peptide aptamer prey fusion protein that interacts with LexA in the context of most LexA fusion proteins.
(§6) The inventors set out to map the R5G42 binding site on CNA. The CNA interacting clones selected in the yeast two-hybrid experiments corresponded to the carboxy-terminal regions of the beta and gamma isoforms, encompassing the calmodulin-binding domain and the auto-inhibitory domain (see FIG. 3B). […] The LexA-R5G52 bait protein may thus not be properly expressed and/or folded in this yeast two-hybrid setting.
(§7) The 5′ end of RH6 (upper case) matches part of the HA epitope tag and the 5′ ends of RH4, RH3 and RH7 (upper case) match the 5′ extremity of the ADH terminator. The PCR reactions was performed using pCMV-SPORT6-CnAβ as a template. […]

[2] = test system: Bad phosphorylation (phosphatase activity of calcineurin in cells); test: Monitoring of Bad phosphorylation in HeLa cells (western blot); format: cell-based; settings: transient expression in human cells
Description: (B) Monitoring of BAD phosphorylation in cultured cells. Hela-Tet cells were transfected with plasmids directing the transient expression of BAD, CNAβ, CNB and peptide aptamers R5G42, R5G52 or R7G44. Transfected cells were treated or not with 500 nM FK506. The expression level of BAD and the phosphorylation of serine 112 and 136 residues were monitored by western blot experiments using specific antibodies.
The inventors set out to confirm this finding in human cells. Bad is a key pro-apoptotic protein whose activity is tightly regulated by its phosphorylation status, itself controlled by the balanced activity of several protein kinases and calcineurin. Therefore, the phosphatase activity of calcineurin in cells can be monitored by examining Bad phosphorylation. HeLa cells were transfected with plasmids directing the expression of Bad, CNAβ, CNB and either R5G42, R5G52 or R7G44.
The peptide aptamer coding genes were cloned into pPEAt (a pCEP4-based vector that bears a tetracyclin-inducible promoter and a hygromycin resistance gene), as described above (“cell proliferation assay”).
4×10^5 Hela-tet cells/well were seeded in a 6-well plate 24 h before transfection. […] The lysates were centrifuged to remove cellular debris and the protein content was quantified using the microBCA protein assay kit (Pierce). […]

[3] = test system: CNA fragments (CNA constructs CNA1-CNA11); test: Further yeast two-hybrid binding assays (higher sensitivity); parameters: species or system human
Description: FIG. 14. Specificity of aptamers according to the invention for CNA and NS5A-TP2 Interaction matrix between peptide aptamers R5G42, C2, C7, C8, N9, R5G44 and R5G52 with CNA constructs CNA1-CNA8 (A) CNA9-11 (B) and NS5A-TP2 (C). An interaction phenotype between CNA3/CNA 11, which both contain the Calmodulin binding domain (CaM) and the auto-inhibitory domain (Al) but not the CNB binding domain (CNB) and the aptamers R5G42, C2, C7, C8 and N9 is observed in a two-hybrid assay. R5G44 and R5G52 aptamers recognize neither the CNA fragments, nor NS5A-TP2. Only aptamers R5G42 and N9 recognize NS5A-TP2.
The inventors proceeded to further yeast two-hybrid binding assays between peptide aptamers R5G42 (SEQ ID 22), C2 (SEQ ID 23), C7 (SEQ ID 27), C8 (SEQ ID 28), N9 (SEQ ID 33), R5G44 and R5G52 with CNA constructs CNA1-CNA8 (FIG. 14A), CNA9-CNA11 (FIG. 14B) and NS5A-TP2 (SEQ ID 15) (FIG. 14C). The sensitivity of this yeast two-hybrid assay was higher than in the experiment reported above.

CNA = test: Yeast two-hybrid assay; format: binding, human; settings: mating assay, LexA-aptamer fusions
Description: as §5, §6
The inventors explored the ability of R5G42 mutants having a one amino acid change as compared to R5G42, to bind to CNA beta and gamma C-Terminal fragments (FIG. 3b) and to NS5A-TP2. To this end, they proceeded to yeast-two hybrid assays as in example 3. CNA beta and gamma C-Terminal fragments (FIG. 3b) and NS5A-TP2 were cloned in three different plasmids (pSH18-34, pJK103 and pRB18-40), which differed from each other in the level of sensitivity of their promoter to the bait/prey complex formation, pSH18-34 having the highest sensitivity and pRB18-40 having the lowest.
as §7, with “template. CnAβCter Δ1, Δ2, CaM were constructed by combining oligonucleotides RH6/RH4, RH6/RH3, RH6/RH7, respectively.” for “template.”

[4] = test system: purified CNA (bovine brain purified calcineurin); test: In vitro binding assay (affinity capture on glutathione-sepharose, western blot); settings: glutathione-sepharose beads, anti-calcineurin western blot
Description: (C) Affinity capture assay.
The inventors performed two yeast two-hybrid screening experiments against a LexA-R5G42 bait protein, using a human testis and a human fcetal brain cDNA library. They obtained 29 and 42 reconfirmed clones, respectively. […] The inventors thus retained two candidates. The highest occurring clone, from both libraries, corresponded to the NS5A-TP2 protein, recently discovered through a systematic search for genes that are transactivated by the non-structural NS5A protein from hepatitis C virus (22). No biological knowledge is currently available for this protein. The other remaining target candidate was calcineurin A (CNA), for which two different isoforms (beta and gamma) were selected from the testes library (see FIG. 3A). To confirm the interaction between R5G42 and CNA, the inventors performed an in vitro binding assay between recombinant purified GST-aptamer fusion proteins, coupled to a glutathione-sepharose matrix, and purified CNA.
In Vitro Binding Assay pVRV6-aptamer plasmids were first digested with EcoRI and XhoI and the fragments were ligated into EcoRI/XhoI-cut pGEX4T1. GST-aptamer fusions were expressed in a BL-21(DE3) E. coli strain. […] The samples were loaded onto a SDS-PAGE, transferred to nitrocellulose membrane, and calcineurin was detected by western-blotting using an anti-calcineurin pan A antibody (1/1000, Chemicon International). […]

In the case of calmodulin [CaM, reference compound], the “activation of CNA phosphatase activity” value ([1]; addition of purified calmodulin, pNPP) is reported as “required to activate CNA”.

B1: R5G52: peptide aptamer: variable region IQSPPESPTG in human thioredoxin (SEQ ID 32) (protein)
chain: MVKQIESKTAFQEALDAAGDKLVVVDFSATWCGPIQSPPESPTGGPCKMIKPFFHSLSEKYSNVIFLEVDVDDCQDVASECEVKCMPTFQFFKKGQKVGEFSGANKEKLEATINELV
modifications: left off: large carriers
B1 was tested, and the “inhibition of cell proliferation (colony formation)” value (Hela cells) was “significantly inhibited the proliferation”, the “inhibition of cell proliferation (colony formation)” value (MCF-7 cells) was “significantly inhibited the proliferation” and the “yeast two-hybrid interaction phenotype” value (peptide aptamer RG22) was “did not show an interaction phenotype”. The Bad phosphorylation levels [2] was “does not affect Bad phosphorylation levels”, the “recognition of the CNA fragments” value [3] was “recognized neither the CNA fragments” and the “yeast two-hybrid interaction phenotype with CNA” value (CNA) was “did not show an interaction phenotype”.

B2: GST-R5G42: recombinant purified GST-aptamer fusion protein of R5G42 (protein)
chain: B1 chain with I35S, Q36A, S37V, P38T, P39F, E40A, S41V, P42C, T43A, G44L
modifications: left off: a dimerising Fc or GST
In the case of B2, the “capture of purified CNA by GST-aptamer solid phase” value [4] is reported as “readily captured CNA”, the “CNA phosphatase activity in absence of CaM” value ([1]; high concentrations of GST-aptamer, pNPP, 0.1 μM calcineurin) is reported as “activated CNA phosphatase activity in absence of CaM, to a level comparable to that observed using CaM” and the “effect on CaM-activated CNA phosphatase activity” value ([1]; in presence of CaM (not shown)) is reported as “did not result in an inhibition or an exacerbation”.
